Source: the Human Domainome abundance scans (Beltran et al. 2025)
± gives the uncertainty stated by the source.

B1: CD2-associated protein, residues 271 to 331; numbered along this chain, Q9Y5K6 (parent)
chain: KEYCRTLFAYEGTNEDELTFKEGEIIHLISKETGEAGWWRGELNGKEGVFPDNFAVQINEL
B2: Protein piccolo, residues 1058 to 1114; numbered along this chain, Q9Y6V0 (parent)
chain: TCPLCKTELNIGSKDPPNFNTCTECKNQVCNLCGFNPTPHLTEIQEWLCLNCQTQRA

Variants of: B1
Assay: abundance fitness (aPCA) (normalised: wild type 0, dead -1); higher = more abundant; growth selection in yeast, the domain comes from the species named
Conditions: Homo sapiens

| Variant | abundance fitness |
| --- | --- |
| A9E | -0.09 ± 0.083 |
| A9S | 0.029 ± 0.052 |
| A9C | -0.129 ± 0.078 |
| A9D | -0.011 ± 0.097 |
| A9G | -0.283 ± 0.056 |
| A9N | -0.013 ± 0.077 |
| A9P | -0.084 ± 0.079 |
| A9L | -0.599 ± 0.057 |
| A9M | -0.291 ± 0.063 |
| A9F | -0.469 ± 0.13 |
| A9I | -0.542 ± 0.12 |
| A9H | -0.076 ± 0.084 |
| A9Y | -0.309 ± 0.096 |
| A9R | -0.144 ± 0.037 |
| A9Q | -0.096 ± 0.063 |
| A9W | -0.448 ± 0.07 |
| A9K | -0.077 ± 0.056 |
| Y3N | -0.292 ± 0.12 |
| Y3P | -0.75 ± 0.089 |
| Y3L | -0.131 ± 0.05 |
| Y3K | -0.748 ± 0.3 |
| Y3M | -0.372 ± 0.081 |
| Y3Q | -0.775 ± 0.19 |
| Y3E | -0.567 ± 0.17 |
| Y3V | -0.537 ± 0.11 |
| Y3T | -0.608 ± 0.12 |

| Variant | abundance fitness |
| --- | --- |
| Y3G | -0.611 ± 0.14 |
| Y3A | -0.369 ± 0.071 |
| Y3F | 0.001 ± 0.11 |
| Y3S | -0.26 ± 0.067 |
| Y3D | -0.555 ± 0.27 |
| Y3W | -0.661 ± 0.086 |
| Y3H | -0.278 ± 0.26 |
| T6F | -0.889 ± 0.22 |
| T6R | -0.682 ± 0.1 |
| T6E | -0.698 ± 0.25 |
| T6L | -0.88 ± 0.12 |
| T6V | -0.844 ± 0.19 |
| T6M | -0.474 ± 0.22 |
| T6Q | -0.68 ± 0.14 |
| T6P | -0.605 ± 0.24 |
| T6K | -0.607 ± 0.13 |
| T6C | -0.614 ± 0.14 |
| T6Y | -0.621 ± 0.12 |
| T6D | -0.963 ± 0.45 |
| T6G | -0.528 ± 0.11 |
| T6W | -1.15 ± 0.24 |
| T6S | -0.103 ± 0.055 |
| T6A | -0.014 ± 0.091 |
| T6H | -0.695 ± 0.21 |
| T6I | -0.5 ± 0.3 |
| T6N | -0.926 ± 0.29 |

Variants of: B2
Assay: as above
Conditions: Homo sapiens

| Variant | abundance fitness |
| --- | --- |
| Q53D | 0.099 ± 0.22 |
| Q53K | 0.115 ± 0.21 |
| Q53G | -0.016 ± 0.1 |
| Q53M | -0.36 ± 0.18 |
| Q53T | -0.067 ± 0.22 |
| Q53A | -0.249 ± 0.17 |
| Q53S | 0.028 ± 0.12 |
| Q53Y | -0.23 ± 0.18 |
| Q53N | 0.118 ± 0.39 |
| Q53R | 0.099 ± 0.1 |
| Q53C | -0.464 ± 0.15 |
| Q53F | -0.275 ± 0.26 |
| Q53E | -0.074 ± 0.18 |
| Q53I | -0.25 ± 0.22 |
| Q53V | -0.256 ± 0.12 |
| Q53L | -0.386 ± 0.11 |
| Q53W | -0.383 ± 0.12 |
| L50F | -0.25 ± 0.14 |
| L50N | 0.019 ± 0.14 |
| L50I | -0.173 ± 0.23 |
| L50Q | 0.15 ± 0.25 |
| L50H | 0.145 ± 0.16 |
| L50T | 0.208 ± 0.14 |

| Variant | abundance fitness |
| --- | --- |
| L50K | 0.078 ± 0.19 |
| L50S | 0.141 ± 0.097 |
| L50R | 0.182 ± 0.098 |
| L50M | -0.565 ± 0.31 |
| L50C | -0.04 ± 0.13 |
| L50V | 0.102 ± 0.099 |
| L50A | 0.129 ± 0.12 |
| L50W | -0.215 ± 0.12 |
| L50P | 0.329 ± 0.17 |
| L50G | 0.084 ± 0.092 |
| L50D | 0.208 ± 0.17 |
| L50Y | -0.239 ± 0.25 |
| L50E | 0.157 ± 0.23 |
| N51M | -0.557 ± 0.2 |
| N51V | -0.326 ± 0.11 |
| N51D | -0.166 ± 0.24 |
| N51A | -0.015 ± 0.16 |
| N51I | -0.566 ± 0.2 |
| N51G | -0.091 ± 0.14 |
| N51F | -0.306 ± 0.12 |
| N51E | -0.099 ± 0.21 |
| N51P | -0.284 ± 0.17 |
| N51S | -0.247 ± 0.12 |

| Variant | abundance fitness |
| --- | --- |
| N51H | -0.146 ± 0.25 |
| N51K | -0.063 ± 0.22 |
| L48K | -0.245 ± 0.18 |
| L48N | -0.063 ± 0.17 |
| L48H | -0.177 ± 0.23 |
| L48C | 0.164 ± 0.15 |
| L48I | -0.105 ± 0.22 |
| L48E | -0.131 ± 0.14 |
| L48Y | -0.112 ± 0.17 |
| L48T | -0.089 ± 0.14 |
| L48S | -0.063 ± 0.11 |
| L48G | -0.355 ± 0.12 |
| L48A | -0.051 ± 0.13 |
| L48F | 0.09 ± 0.13 |
| L48W | -0.061 ± 0.13 |
| L48R | -0.079 ± 0.11 |
| L48V | -0.165 ± 0.098 |
| L48D | -0.297 ± 0.18 |
| L48Q | -0.274 ± 0.19 |
| L48P | -0.318 ± 0.17 |
| L48M | -0.312 ± 0.16 |
| C52G | -0.727 ± 0.12 |
| C52H | -0.273 ± 0.17 |

| Variant | abundance fitness |
| --- | --- |
| C52D | -0.755 ± 0.23 |
| C52N | -0.876 ± 0.36 |
| C52S | -0.709 ± 0.13 |
| C52P | -1.2 ± 0.23 |
| C52R | -0.701 ± 0.13 |
| C52W | -1.14 ± 0.32 |
| C52Q | -0.841 ± 0.19 |
| C52F | -1.06 ± 0.18 |
| C52A | -0.85 ± 0.16 |
| C52Y | -0.841 ± 0.16 |
| C52E | -0.448 ± 0.16 |
| C52K | -0.801 ± 0.29 |
| C52M | -0.981 ± 0.23 |
| C52T | -0.842 ± 0.21 |
| T54V | -0.198 ± 0.14 |
| T54G | 0.046 ± 0.14 |
| T54I | -0.37 ± 0.18 |
| T54M | -0.602 ± 0.17 |
| T54C | -0.182 ± 0.24 |
| T54Y | -0.369 ± 0.23 |
| T54Q | 0.214 ± 0.13 |
| T54K | 0.196 ± 0.12 |
| T54A | 0.049 ± 0.12 |

| Variant | abundance fitness |
| --- | --- |
| T54E | 0.231 ± 0.17 |
| T54H | -0.076 ± 0.29 |
| T54W | -0.441 ± 0.15 |
| T54P | 0.156 ± 0.12 |
| T54L | -0.531 ± 0.1 |
| T54F | -0.79 ± 0.16 |
| T54N | 0.296 ± 0.32 |
| C49F | -0.793 ± 0.24 |
| C49D | -0.597 ± 0.2 |
| C49T | -1.06 ± 0.26 |
| C49Y | -0.958 ± 0.17 |
| C49E | -1.01 ± 0.24 |
| C49W | -0.884 ± 0.14 |
| C49V | -0.849 ± 0.14 |
| C49I | -1.05 ± 0.28 |
| C49N | -0.618 ± 0.28 |
| C49L | -1 ± 0.14 |
| C49A | -0.66 ± 0.13 |
| C49G | -0.934 ± 0.14 |
| C49P | -0.418 ± 0.14 |
| C49Q | -0.927 ± 0.17 |
| C49R | -0.782 ± 0.13 |
| C49H | -0.761 ± 0.18 |
